Reference: patent publication US20220125947A1 (published 2022)

Key:
[1] = target: T1, gamma-delta T cell receptor on human γδ T cells (human); assay: flow cytometry, dose-response binding at 37 C, human γδ T cells
T1 construct: also called AG000003021 (γδ T cells)
Experimental: (§1) Binding of antibodies to human γδ T cells or SKW cell lines expressing Vγ9/Vδ2, Vγ9/Vδ2 or Vγ5/Vδ2 was carried out by flow cytometry. Briefly, the cells were centrifuged at 300×g for 5 minutes and the pellet was resuspended in 34 ml fresh media (in RPMI+10% FBS). 50 μL of the cells were then plated (44K cells/well) into assay plates. Samples were incubated for one hour at 37° C. in tissue culture (TC) incubator followed by wash steps by adding 100 μl FACS staining buffer. Secondary detention antibodies (A647 conjugated anti-human IgG Fc specific antibody (2 μg/mL) along with AF488 anti mouse CD3, clone OKT3 at 1 ug/mL) were added at 50 μL/well to appropriate wells according to the plate map. After incubating for 60 minutes at 37° C. in the TC incubator, cells were again washed as described above. This is followed by resuspension in 20 μL/well running buffer containing 1:1000 dilution of Sytox blue dead cell stain and the plates were run on iQue Screener.
(§2) Gating and data analysis: Human anti-human Vγ9 antibody (VG9B2 mAb at 10 nM) was used to mark the gating of positive population. All cells were first gated for singlets on SCS-A vs. SCS-H dot plot, live/dead followed by CD3 positive population, and this subset of CD3 positive population was gated for Vγ9 positive binding using positive control mAb. Cells were also assessed for cell binding of control mAbs by RL1 (A647) Geomeans from the live cell population. Advanced metrics were used and normalization metrics were chosen to calculate fold over background wells containing secondary antibody alone (designated as ‘background’ within ForeCyt settings).

[2] = target: T2, γδ T cell receptor on human γδ T cells (human); assay: flow cytometry, DRC binding 37 C, human γδ T cells
T2 construct: also called AG000003021 (γδ T cells)
Experimental: as §1, §2

| Binder | Max. Activity [1] | Max. Activity [2] |
| --- | --- | --- |
| VG9B65 (antibody, human IgG1, kappa, V domains shown, IgG1, kappa) VH: QVQLVQSGAEVKKPGSSVKVSCKASGGTFNIYAINWVRQAPGQGLEWMGGIIPFFGTANYAQKFQDRVTITADKSTNTAYMELSSLRSEDTAVFYCARGGDSGYDWGFDYWGQGTLVTVSS VL: DIVMTQTPLSSPVTLGQPASISCRSSQSLVHSDGNTYLSWLQQRPGQPPRLLIYQISNRFSGVPDRFSGSGAGTDFTLNISRVEADDVGVYYCMQATQFPLTFGGGTKVEIKR | 1820 fold over background | – |
| VG9B81 (antibody, human IgG1, kappa, V domains shown, IgG1, kappa) VH: QVQLQESGPGLVKPSETLSLTCSVSGGSINTYYWSWFRQPAGKGLELIGRIYTSDNTNYNPSLKSRVTMSVDTSKNQFSLKLSSVTAADTAVYYCARYNWNYWYFDLWGRGTLVTVSS VL: DIQMTQSPSFLSASVRDRVNITCRASQGISSYLAWYQQKPGKAPKLLIYTASTLQSGVPSRFSGSGSGTEFTLTISSLQPEDFATYYCQHLNSYPYTFGQGTKVEIKR | 1770 fold over background | – |
| VG9B203 (antibody, human IgG1, lambda, V domains shown, IgG1, lambda) VH: QVQLVQSGPGLVKPSETLSLTCTVSGDSIGHYYWNWIRQPAGKGLEWIGRIYTSGSTNYNPSLKSRVTMSVDTSKNQFSLKLSSVTAADTAVYYCARSGGNFYWYFDLWGRGTLVTVSS VL: QSVLTQPPSVSAAPGQKVTISCSGSSSNIGNNYVSWYQQVPGTAPKLLIYDNNKRPSGIPDRISGSKSGTSATLGITGLQTGDEADYYCGTWDSSLSAGVFGGGTKVTVLG | 1750 fold over background | – |
| VG9B380 (antibody, human IgG1, lambda, V domains shown, IgG1, lambda) VH: QVQLQESGPGLVKPSETLSLTCTVSGGSISNYYWSWIRQPAGKGLEWIGRIYPSGITSYDPSLKSRVTMSLDTSKNQFSLKLTSVTAADTAVYYCAGIMGTKGAFDIWGQGTMVTVSS VL: QSALTQPASVSGSPGQSITISCTGTSSDVGGYNYVSWYQQHPGKAPKLLIYEVSNRPSGVSNRFSGSKSGSTASLTISGLQAEDEADYYCSSYTSTSVVFGGGTKLTVLG | 1750 fold over background | – |
| VG9B103 (antibody, human IgG1, kappa, V domains shown, IgG1, kappa) VH: EVQLVQSGAEVKKPGSSVKVSCKTSGGTFSSYAISWVRQAPGQGLEWMGGIIPIFGTATYAQKFQDRVTITADKSTSTAYMELSSLRSEDTAVFYCARGVGWGTDYYYGLDVWGQGTTVTVSS VL: ETTLTQSPLSSPVTLGQPASISCRSSQGLVHSDGNTYLSWLQQRPGQSPRLLIYKISNRFSGVPDRFSGSGAGTDFTLKISRVEAEDVGVYYCMQATHHPLTFGGGTKVEIKR | 1680 fold over background | – |
| VG9B106 (antibody, human IgG1, kappa, V domains shown, IgG1, kappa) VH: EVQLVQSGAEVKKPGASVKVSCKASGYTFTGYYLHWVRQAPGQGLEWVGWINPSSGDTDYAQTFQGRVTMTRDTSISTAYMELSRLRSDDTAVYYCANELGIGVFDYWGQGTLVTVSS VL: not shown | 1520 fold over background | – |
| VG9B115 (antibody, human IgG1, kappa, V domains shown, IgG1, kappa) VH: QVTLRESGPTLVKPTQTLTLTCTFSGFSLSTYGVGVGWIRQPPGKALEWLALIYWNDDKRYNPSLKSRLTITKDTSKNQVVLTMTNMDPVGTATYYCSHESDWSYYFDYWGQGTMVTVSS VL: EIVLTQSPATLSLSPGERATLSCRASQSVSSYLAWYQQKPGLAPRLLIYDASNRATGIPARFSGSGSGTDFTLTISSLEPVDFAVYYCQQRSSWPWTFGQGTKVDIKR | 1520 fold over background | – |
| VG9B27 (antibody, human IgG1, kappa, V domains shown, IgG1, kappa) VH: EVQLVQSGAEVKKPGSSVKVSCKASGGTFSSYVISWVRQAPGQGLEWMGGILPILSTANYAQKFQGRVTITADKSTSTAYMELSSLRSEDTAVYYCARAHDYYYGMDVWGQGTMVTVSS VL: not shown | 1450 fold over background | – |
| VG9B131 (antibody, human IgG1, kappa, V domains shown, IgG1, kappa) VH: QVQLVQSGGTLVQPGGSLRLSCAVSGFTFSSYDMNWVRQAPGKGLEWVSYISSSSTAKYYADSVKGRFTISRDNAKNSLYLQMNSLWDEDTAVYYCAREDIVVVTPILQHWGQGTLVTVSS VL: EIVMTQSPATLSLSPGERATLSCRASQSVSNYLAWYQQKSGQAPRLLIYDASNRATGIPARFSGSGSGTDFTLTISSLEPEDFAVYCCQQRSNWTFGQGTRLEIKR | 1400 fold over background | – |
| VG9B163 (antibody, human IgG1, lambda, V domains shown, IgG1, lambda) VH: QVQLVQSGGGLVKPGASLKLSCAASGFTFSNHGMSWVRQTSDKRLEWVASITRGGDTTYYPDNVKGRFTISRENAKNTLYLQMSSLKSDDTALYYCTRGPLTVGYAMDYWGQGTTVTVSS VL: QLVLTQPPSVSAAPGQKVTISCSGNSSNIGHNYVSWYQQLPGTAPKLLIYDNNQRPSGIPDRFSGSKSDTSATLGITGLQTGDEADYYCGIWDSSLSIVVFGGGTKVTVLG | 1350 fold over background | – |
| VG9B68 (antibody, human IgG1, kappa, V domains shown, IgG1, kappa) VH: EVQLVESGAEVKKPGSSVKVSCKASGGTFSTYAISWVRQAPGQGLEWMGGIIPIFGTATYAQRFQDRVMITADKSTTTAYMELSSLRSEDTAVFYCARGVGWGSDYYYGLDVWGQGTMVTVSS VL: EIVMTQSPLSSPVTLGQPASISCRSSQSLVHSDGNTYLSWLQQRPGQSPRLLIYKISNRFSGVPDRFSGSGAGTDFTLRITRVEPEDVGVYYCIQATHHPLTFGGGTRLEIKR | – | 1190 fold over background |
| VG9B204 (antibody, human IgG1, lambda, V domains shown, IgG1, lambda) VH: QVQLQESGPGLVKPSETLSLTCTVSYGSFSSFYWSWIRQPAGKGLEWIGRIYTSGGTIYNPSLKSRVTMSVDTSKNQFSLKLSSVTAADTAVYYCARWLRAFDYWGQGTLVTVSS VL: not shown | – | 1130 fold over background |
| VG9B157 (antibody, human IgG1, lambda, V domains shown, IgG1, lambda) VH: EVQLLESGGGLVKPGASLKLSCAASGFTFSNHGMSWVRQTSDKRLEWVASITRGGDTTYYPDNVKGRFTISRENAKNTLYLQMSSLKSDDTALYYCTRGPLTVGYAMDYWGQGTTVTVSS VL: SSELTQDPAVSVALGQTVRITCQGDSLRSYYATWYQQKPGQAPILVIYGENNRPSGIPDRFSGSRSGNTASLTITGAQAEDEADYYCNSRDTGDHHLVFGGGTKLTVLG | – | 1070 fold over background |

Continued, values first:

| Max. Activity [1] | Max. Activity [2] | Binder |
| --- | --- | --- |
| 1540 fold over background | – | VG9B462 (antibody, human IgG1, lambda, IgG1, lambda) heavy: not shown light: QSVLTQPASVSGSPGQSITISCTGTSSDVGGYNYVSWYQQHPGKAPKLMIYEVSNRPSGVSNRFSGSKSGNTASLTISGLQAEDEADYYCSSYTSTSVVFGGGTKLTVLGQPKAAPSVTLFPPSSEELQANKATLVCLISDFYPGAVTVAWKADSSPVKAGVETTTPSKQSNNKYAASSYLSLTPEQWKSHRSYSCQVTHEGSTVEKTVAPTECS |
| 1540 fold over background | – | VG9B461 (antibody, human IgG1, lambda, IgG1, lambda) heavy: not shown light: QPVLTQSSSVSGSPGQSITISCTGTSSDVGGYNYVSWYQQHPGKAPKLMIYEVSNRPSGVSNRFSGSKSGNTASLTISGLQAEDEADYYCSSYTSTSVVFGGGTKVTVLGQPKAAPSVTLFPPSSEELQANKATLVCLISDFYPGAVTVAWKADSSPVKAGVETTTPSKQSNNKYAASSYLSLTPEQWKSHRSYSCQVTHEGSTVEKTVAPTECS |
| 1410 fold over background | – | VG9B458 (antibody, human IgG1, lambda, IgG1, lambda) heavy: not shown light: QSVLTQPASVSGSPGQSITISCTGTSSDVGGYNYVSWYQQHPGKAPKLMIYEVSNRPSGVSNRFSGSKSGNTASLTISGLQAEDEADYYCSSYTSTSVVFGGGTKLTVLGQPKAAPSVTLFPPSSEELQANKATLVCLISDFYPGAVTVAWKADSSPVKAGVETTTPSKQSNNKYAASSYLSLTPEQWKSHRSYSCQVTHEGSTVEKTVAPTECS |
| – | 1240 fold over background | VG9B454 (antibody, human IgG1, lambda, IgG1, lambda) heavy: not shown light: QAVLTQPASVSGSPGQSITISCTGTSSDVGGYNYVSWYQQHPGKAPKLMIYEVSNRPSGVSNRFSGSKSGNTASLTISGLQAEDEADYYCSSYTSTSVVFGGGTKLTVLGQPKAAPSVTLFPPSSEELQANKATLVCLISDFYPGAVTVAWKADSSPVKAGVETTTPSKQSNNKYAASSYLSLTPEQWKSHRSYSCQVTHEGSTVEKTVAPTECS |
| – | 1240 fold over background | VG9B439 (antibody, human IgG1, lambda, IgG1, lambda) heavy: not shown light: QSALTQPASVSGSPGQSITISCTGTSSDVGGYNYVSWYQQHPGKAPKLMIYEVSNRPSGVSNRFSGSKSGNTASLTISGLQAEDEADYYCSSYTSTSVVFGGGTKLTVLGQPKAAPSVTLFPPSSEELQANKATLVCLISDFYPGAVTVAWKADSSPVKAGVETTTPSKQSNNKYAASSYLSLTPEQWKSHRSYSCQVTHEGSTVEKTVAPTECS |
| – | 1180 fold over background | VG9B449 (antibody, human IgG1, lambda, IgG1, lambda) heavy: not shown light: QAVLTQPASVSGSPGQSITISCTGTSSDVGGYNYVSWYQQHPGKAPKLMIYEVSNRPSGVSNRFSGSKSGNTASLTISGLQAEDEADYYCSSYTSTSVVFGGGTKVTVLGQPKAAPSVTLFPPSSEELQANKATLVCLISDFYPGAVTVAWKADSSPVKAGVETTTPSKQSNNKYAASSYLSLTPEQWKSHRSYSCQVTHEGSTVEKTVAPTECS |
| – | 1090 fold over background | VG9B459 (antibody, human IgG1, lambda, IgG1, lambda) heavy: not shown light: QPVLTQPASVSGSPGQSITISCTGTSSDVGGYNYVSWYQQHPGKAPKLMIYEVSNRPSGVSNRFSGSKSGNTASLTISGLQAEDEADYYCSSYTSTSVVFGGGTKLTVLGQPKAAPSVTLFPPSSEELQANKATLVCLISDFYPGAVTVAWKADSSPVKAGVETTTPSKQSNNKYAASSYLSLTPEQWKSHRSYSCQVTHEGSTVEKTVAPTECS |
| – | 1040 fold over background | VG9B453 (antibody, human IgG1, lambda, IgG1, lambda) heavy: not shown light: QSALTQPASVSGSPGQSITISCTGTSSDVGGYNYVSWYQQHPGKAPKLMIYEVSNRPSGVSNRFSGSKSGNTASLTISGLQAEDEADYYCSSYTSTSVVFGGGTKVTVLGQPKAAPSVTLFPPSSEELQANKATLVCLISDFYPGAVTVAWKADSSPVKAGVETTTPSKQSNNKYAASSYLSLTPEQWKSHRSYSCQVTHEGSTVEKTVAPTECS |
